Reference: IntAct's records for PubMed 24658140

B1: Beta-arrestin-2 (Homo sapiens), P32121-4 (parent)
chain: MGEKPGTRVFKKSSPNCKLTVYLGKRDFVDHLDKVDPVDGVVLVDPDYLKDRKVFVTLTCAFRYGREDLDVLGLSFRKDLFIATYQAFPPVPNPPRPPTRLQDRLLRKLGQHAHPFFFTVRMPLPSEGQGAGAGTVSGVGIPQNLPCSVTLQPGPEDTGKACGVDFEIRAFCAKSLEEKSHKRNSVRLVIRKVQFAPEKPGPQPSAETTRHFLMSDRSLHLEASLDKELYYHGEPLNVNVHVTNNSTKTVKKIKVSVRQYADICLFSTAQYKCPVAQLEQDDQVSPSSTFCKVYTITPLLSDNREKRGLALDGKLKHEDTNLASSTIVKEGANKEVLGILVSYRVKVKLVVSRGGDVSVELPFVLMHPKPHDHIPLPRPQSAAPETDVPVDTNLIEFDTNYATDDDIVFEDFARLRLKGMKDDDYDDQLC
B2: Receptor tyrosine-protein kinase erbB-4 (Homo sapiens), Q15303 (parent)
chain: MKPATGLWVWVSLLVAAGTVQPSDSQSVCAGTENKLSSLSDLEQQYRALRKYYENCEVVMGNLEITSIEHNRDLSFLRSVREVTGYVLVALNQFRYLPLENLRIIRGTKLYEDRYALAIFLNYRKDGNFGLQELGLKNLTEILNGGVYVDQNKFLCYADTIHWQDIVRNPWPSNLTLVSTNGSSGCGRCHKSCTGRCWGPTENHCQTLTRTVCAEQCDGRCYGPYVSDCCHRECAGGCSGPKDTDCFACMNFNDSGACVTQCPQTFVYNPTTFQLEHNFNAKYTYGAFCVKKCPHNFVVDSSSCVRACPSSKMEVEENGIKMCKPCTDICPKACDGIGTGSLMSAQTVDSSNIDKFINCTKINGNLIFLVTGIHGDPYNAIEAIDPEKLNVFRTVREITGFLNIQSWPPNMTDFSVFSNLVTIGGRVLYSGLSLLILKQQGITSLQFQSLKEISAGNIYITDNSNLCYYHTINWTTLFSTINQRIVIRDNRKAENCTAEGMVCNHLCSSDGCWGPGPDQCLSCRRFSRGRICIESCNLYDGEFREFENGSICVECDPQCEKMEDGLLTCHGPGPDNCTKCSHFKDGPNCVEKCPDGLQGANSFIFKYADPDRECHPCHPNCTQGCNGPTSHDCIYYPWTGHSTLPQHARTPLIAAGVIGGLFILVIVGLTFAVYVRRKSIKKKRALRRFLETELVEPLTPSGTAPNQAQLRILKETELKRVKVLGSGAFGTVYKGIWVPEGETVKIPVAIKILNETTGPKANVEFMDEALIMASMDHPHLVRLLGVCLSPTIQLVTQLMPHGCLLEYVHEHKDNIGSQLLLNWCVQIAKGMMYLEERRLVHRDLAARNVLVKSPNHVKITDFGLARLLEGDEKEYNADGGKMPIKWMALECIHYRKFTHQSDVWSYGVTIWELMTFGGKPYDGIPTREIPDLLEKGERLPQPPICTIDVYMVMVKCWMIDADSRPKFKELAAEFSRMARDPQRYLVIQGDDRMKLPSPNDSKFFQNLLDEEDLEDMMDAEEYLVPQAFNIPPPIYTSRARIDSNRSEIGHSPPPAYTPMSGNQFVYRDGGFAAEQGVSVPYRAPTSTIPEAPVAQGATAEIFDDSCCNGTLRKPVAPHVQEDSSTQRYSADPTVFAPERSPRGELDEEGYMTPMRDKPKQEYLNPVEENPFVSRRKNGDLQALDNPEYHNASNGPPKAEDEYVNEPLYLNTFANTLGKAEYLKNNILSMPEKAKKAFDNPDYWNHSLPPRSTLQHPDYLQEYSTKYFYKQNGRIRPIVAENPEYLSEFSLKPGTVLPPPPYRHRNTVV
partner: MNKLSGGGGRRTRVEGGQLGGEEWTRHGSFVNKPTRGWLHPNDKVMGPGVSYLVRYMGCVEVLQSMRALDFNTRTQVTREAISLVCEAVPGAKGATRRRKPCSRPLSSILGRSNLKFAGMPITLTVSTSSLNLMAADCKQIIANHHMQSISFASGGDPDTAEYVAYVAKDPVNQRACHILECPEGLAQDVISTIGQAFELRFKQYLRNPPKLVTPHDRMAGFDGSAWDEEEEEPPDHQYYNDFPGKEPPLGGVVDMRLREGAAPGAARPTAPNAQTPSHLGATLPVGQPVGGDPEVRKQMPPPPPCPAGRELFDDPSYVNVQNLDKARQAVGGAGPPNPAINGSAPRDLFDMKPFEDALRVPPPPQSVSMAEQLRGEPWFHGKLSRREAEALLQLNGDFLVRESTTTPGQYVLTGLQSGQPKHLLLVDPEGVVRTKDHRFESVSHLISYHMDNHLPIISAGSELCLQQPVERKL

Variants of: B1
Conditions: with adrb2_human ADRB2, P07550

Row | Variant | effect of a mutation on the interaction
1 | R169E | decreasing interaction strength

Variants of: B2
Conditions: with SHC1, P29353-7

Row | Variant | effect of a mutation on the interaction
2 | E872K | increasing interaction strength
3 | E542K | increasing interaction strength
